Here are results for ten molecules from patent US20140296500, “Methods and Compositions of Nucleic Acid Ligands for Detection of Clinical Analytes Related to Human Health” (OTC BIOTECHNOLOGIES, LLC, published 2014).

Data set [1] has as its target T1, Recombinant human growth hormone (r-hGH) (Homo sapiens, UniProt P01241 P01241:27-217). Put plainly: ELONA; binds r-hGH better than natural hGH. As to conditions: tags: >95% pure research grade; label: 5'-biotin. The protocol: FIGS. 16A-16D show four more examples of aptamers (from the SEQ ID NOs 325-526) that bind recombinant human growth hormone (“r-hGH”) better than the natural form of hGH or somatotropin to help discriminate the artificial form in potential drug or doping tests for atheletes and growth-challenged children. The ELISA-like assays were conducted with the named aptamers (SEQ ID NOs 348, 377, 379 and 388) instead of antibodies in each case and absorbances were red at 405 nm with an automated microplate reader after a 15 minute development time in the presence of ABTS substrate as is standard in the diagnostics industry.

For data set [2], the target named is T1, Recombinant human growth hormone (r-hGH). Put plainly: ELONA; binds r-hGH better than natural hGH. As to conditions: tags: >95% pure research grade; label: 5'-biotin. The protocol: FIGS. 15A-15D show four examples of aptamers from the SEQ ID NOs 325-526 that bind recombinant human growth hormone (r-hGH; >95% pure research grade) better than the natural form of hGH or somatotropin in ELISA-like assays to help discriminate the artificial form of hGH in potential drug or doping tests for athletes, or to monitor serum levels of exogendus doses of r-hGH administered to children with growth deficits. The ELISA-like assays were conducted with the named aptamers (SEQ ID NOs 336, 338, 343 and 345) instead of antibodies in each case and absorbances were red at 405 nm with an automated microplate reader after a 15 minute development time in the presence of ABTS substrate as is standard in the diagnostics industry.
This is another data set of the same source.

The target of data set [3] is T2, CTx peptide (C-telopeptide of human type I bone collagen, 26 AA …) (Homo sapiens, UniProt P02452 P02452:1193-1218). The data set is described as follows: FRET beacon; almost as good as 15-base version, slightly higher background. As to conditions: label: 5'-TYE665, 3'-Iowa Black RQ. The protocol:
Cuvettes are gently mixed for 15 to 20 minutes at RT prior to reading their fluorescence in the homogeneous beacon or competitive-displacement FRET assay formats using a spectrofluorometer having gratings to vary the excitation wavelength and emission scanning ability or a stationary, handheld or otherwise portable fluorometer having a more restricted or fixed excitation and emission optical filter set with a range of wavelengths for excitation and emission.
FIGS. 3A-3F show how each of the aptamer beacons derived and defined from FIG. 2 behaved as a function of decreasing CTx peptide concentration (serial two-fold dilutions beginning with 100 micrograms per ml and ending with zero CTx peptide) in 1× binding buffer (1×BB; 0.5 M NaCl, 10 mM Tris-HCl, pH 7.5-7.6, 1 mM MgCl₂). In the figures “h” means hour or O'clock so that 2 h refers to the 2 O'clock loop from FIG. 2, while F means forward-primed and R means reverse-primed by reference to FIG. 2 as well. […] The CTx 2R-2h loop was optimal for FRET-based detection because it gives the greatest spread or separation for various two-fold serial dilutions of the 26-AA CTx peptide beginning at 100 μg/ml. The CTx 2F-10 h loop was also noteworthy, but could not discriminate many of the different CTx concentrations. […]

For data set [4], the target named is T2, CTx peptide (C-telopeptide of human …). The data set is described as follows: FRET beacon; LOD 1 ng/ml; 0.5 M NaCl, 10 mM Tris-HCl, 1 mM MgCl2, pH 7.5-7.6, RT. As to conditions: label: 5'-TYE665, 3'-Iowa Black RQ. The protocol:
Generally, the aptamer beacons or competitive FRET-aptamer complexes are then diluted to a final concentration of 1-5 μg/ml in 1×BB and equally dispensed to polystyrene or methacrylate cuvettes in which 1 ml of unlabeled target at various concentrations in 1×BB, PBS or diluted blood, plasma, serum, saliva, aspirate or urine has been added already. Cuvettes are gently mixed for 15 to 20 minutes at RT prior to reading their fluorescence in the homogeneous beacon or competitive-displacement FRET assay formats using a spectrofluorometer having gratings to vary the excitation wavelength and emission scanning ability or a stationary, handheld or otherwise portable fluorometer having a more restricted or fixed excitation and emission optical filter set with a range of wavelengths for excitation and emission.
FIGS. 3A-3F show how each of the aptamer beacons derived and defined from FIG. 2 behaved as a function of decreasing CTx peptide concentration (serial two-fold dilutions beginning with 100 micrograms per ml and ending with zero CTx peptide) in 1× binding buffer (1×BB; 0.5 M NaCl, 10 mM Tris-HCl, pH 7.5-7.6, 1 mM MgCl₂). In the figures “h” means hour or O'clock so that 2 h refers to the 2 O'clock loop from FIG. 2, while F means forward-primed and R means reverse-primed by reference to FIG. 2 as well. […]

In data set [5] the target is Bovine serum albumin (BSA) (Bos taurus, UniProt P02769 P02769:25-607). The data set is described as follows: FRET beacon; unexpected cross-reactivity with BSA. As to conditions: label: 5'-TYE665, 3'-Iowa Black RQ.
The target of data set [6] is T3, CTx 8-AA peptide (EKAHDGGR) (Homo sapiens, UniProt P02452 P02452:1207-1214).
T3 chain: EKAHDGGR
Put plainly: FRET beacon specificity; no response with 8-AA segment. As to conditions: label: 5'-TYE665, 3'-Iowa Black RQ.

T1 sequence (P01241 27-217, one chain of several): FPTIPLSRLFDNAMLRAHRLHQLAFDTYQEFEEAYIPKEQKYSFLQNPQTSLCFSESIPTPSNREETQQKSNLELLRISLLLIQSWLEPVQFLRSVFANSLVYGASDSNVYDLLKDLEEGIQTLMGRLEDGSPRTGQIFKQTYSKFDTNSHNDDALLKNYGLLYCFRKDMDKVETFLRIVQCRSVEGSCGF
T2 sequence (P02452 1193-1218, one chain of several): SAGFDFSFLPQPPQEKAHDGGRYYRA
Bovine serum albumin (BSA), sequence (P02769 25-607, one chain of several): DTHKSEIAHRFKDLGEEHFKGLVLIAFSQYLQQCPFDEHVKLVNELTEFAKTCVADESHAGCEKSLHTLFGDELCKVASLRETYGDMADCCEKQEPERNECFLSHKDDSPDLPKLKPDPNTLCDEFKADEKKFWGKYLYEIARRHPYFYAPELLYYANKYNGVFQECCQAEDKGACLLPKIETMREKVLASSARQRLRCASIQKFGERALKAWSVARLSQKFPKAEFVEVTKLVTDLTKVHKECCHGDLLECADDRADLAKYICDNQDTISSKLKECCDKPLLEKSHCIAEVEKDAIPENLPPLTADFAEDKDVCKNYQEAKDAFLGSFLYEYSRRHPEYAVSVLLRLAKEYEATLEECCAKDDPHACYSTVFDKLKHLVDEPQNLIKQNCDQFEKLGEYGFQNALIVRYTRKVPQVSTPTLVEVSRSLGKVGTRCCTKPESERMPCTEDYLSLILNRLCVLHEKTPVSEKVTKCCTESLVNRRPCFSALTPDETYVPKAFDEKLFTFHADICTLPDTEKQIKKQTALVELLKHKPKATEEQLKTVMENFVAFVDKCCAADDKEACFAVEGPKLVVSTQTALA

B1: hGH aptamer SEQ 379 (ssDNA)
DNA: ATACGGGAGCCAACACCACCTGAGCGCCGGCAGCACTCACTATTTGTCCCCGCAAGAGCAGGTGTGACGGAT
In the case of B1, the binding result in data set [1] is recorded as “binds”.

B2: hGH aptamer SEQ 343 (ssDNA)
DNA: ATACGGGAGCCAACACCATAAGCAGAGAACTACAAGACGATCCCATATTCCAAAGAGCAGGTGTGACGGAT
B2: in data set [2], the binding result is “binds”.

B3: hGH aptamer SEQ 345 (ssDNA)
DNA: ATACGGGAGCCAACACCAGGTTGGCGTCAAAAGAAATAAGGGATATACATTAGAGAGCAGGTGTGACGGAT
Turning to B3, the binding result in data set [2] is on record as “binds”.

Regarding GTGGTGTTGGCTC (ssDNA) [CTx 2R-2h 13-base beacon], in data set [3], the binding result is reported as “binds”.

B4: hGH aptamer SEQ 388 (ssDNA)
DNA: ATCCGTCACACCTGCTCTAAAACATGGGCCCAATTAGGCGTGATCCAACCCGTCTGGTGTTGGCTCCCGTAT
As for B4, the binding result in data set [1] is “binds”.

B5: hGH aptamer SEQ 377 (ssDNA)
DNA: ATACGGGAGCCAACACCACATGACGGGTGACTAAAAGACGAAATCTCCCAATTAAGAGCAGGTGTGACGGAT
As for B5, the binding result in data set [1] is listed as “binds”.

B6: hGH aptamer SEQ 338 (ssDNA)
DNA: ATCCGTCACACCTGCTCTTGGGTGAATCAATTGTTCGTACTCCACGTGATTCTGTGGTGTTGGCTCCCGTAT
In the case of B6, the binding result in data set [2] is reported as “binds”.

B7: hGH aptamer SEQ 348 (ssDNA)
DNA: ATCCGTCACACCTGCTCTAGGATTTTTGTTATGTCGGCCACGATGGGGACCCCGTGGTGTTGGCTCCCGTAT
As to B7, the binding result in data set [1] was “binds”.

B8: hGH aptamer SEQ 336 (ssDNA)
DNA: ATCCGTCACACCTGCTCTGGGGTGTATCCTTTTATGGATCTGCGAGAATAAGTCTGGTGTTGGCTCCCGTAT
For B8, the binding result in data set [2] is given as “binds”.

On to GGTGGTGTTGGCTCC (ssDNA) [CTx 2R-2h 15-base beacon], for which the values for the binding result in data set [4], in data set [5] and in data set [6] were “binds”, “binds” and “no binding”, respectively.
